The text below walks through data of PMC11560701.

The target of assay [1] is H2A.Z/H3K9cme3 mono-nucleosome (208-bp 601 Widom DNA) (mouse | Xenopus laevis) (UniProt P0C0S6). Briefly: AUC.
Assay [2] has the same target. Briefly: AUC. This is another data set of the same source.

Read-outs that look alike come from different tables or passages of the source.

The Kd is the equilibrium constant for the complex coming apart. A higher Kd goes with weaker binding.

Sequence of human HP1α (heterochromatin protein 1 alpha), full length (P45973 whole entry): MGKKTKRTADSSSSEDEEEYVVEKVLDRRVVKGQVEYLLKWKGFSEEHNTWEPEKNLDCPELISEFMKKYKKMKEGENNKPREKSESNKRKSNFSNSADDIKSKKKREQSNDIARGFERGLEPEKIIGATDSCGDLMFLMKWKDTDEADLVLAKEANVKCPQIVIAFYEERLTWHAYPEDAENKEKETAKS

Turning to “human HP1α (heterochromatin protein 1 alpha), full length (from UniProt P45973 1-191) (natural protein)”, in assay [1], the Kd was found to be 1 µM and the stoichiometry N (HP1α dimers per nucleosome) came out at 2. In assay [2], the Kd came to 850 µM.
